Columns and labels:
[1] = biological target: T1, AtERF96 WT (Arabidopsis thaliana, UniProt Q9LSX0 1-131); assay: EMSA; fEMSA: 30 mM HEPES pH 7.4, 62.5 mM NaCl, 5% glycerol, 30 min RT, gel at 4 C; FP: 30 mM HEPES pH 7.4, 250 mM NaCl, 10% glycerol, 10 nM probe final (20 nM mixed 1:1); details: protein: recombinant; tags: N-terminal 6xHis (pET28a); label: 5'-fluorescein on forward strand; blunt
[2] = biological target: T1, AtERF96 WT; assay: fluorescence polarization; two-site fit (KdHi, KdLo); fEMSA: 30 mM HEPES pH 7.4, 62.5 mM NaCl, 5% glycerol, 30 min RT, gel at 4 C; FP: 30 mM HEPES pH 7.4, 250 mM NaCl, 10% glycerol, 10 nM probe final (20 nM mixed 1:1); details: protein: recombinant; tags: N-terminal 6xHis (pET28a); label: 5'-fluorescein on forward strand
[3] = biological target: T1, AtERF96 WT; assay: X-ray crystallography; 1.76 A; fEMSA: 30 mM HEPES pH 7.4, 62.5 mM NaCl, 5% glycerol, 30 min RT, gel at 4 C; FP: 30 mM HEPES pH 7.4, 250 mM NaCl, 10% glycerol, 10 nM probe final (20 nM mixed 1:1); details: protein: recombinant; tags: N-terminal 6xHis (pET28a); blunt

T1 sequence (Q9LSX0 whole entry): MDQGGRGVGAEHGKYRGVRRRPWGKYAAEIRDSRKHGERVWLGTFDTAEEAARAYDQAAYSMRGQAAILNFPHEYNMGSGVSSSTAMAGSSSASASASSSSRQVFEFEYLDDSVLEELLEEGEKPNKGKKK

B1: GCC11 probe (fEMSA) (dsDNA)
DNA 1: TAGCCGCCAGC
DNA 2: GCTGGCGGCTA
B1: binds [1].

B2: GCC12 (dsDNA)
DNA 1: GTAGCCGCCAGC
DNA 2: GCTGGCGGCTAC
B2: binds [2].

B3: GCC11 (crystal) (dsDNA)
DNA 1: TAGCCGCCAGC
DNA 2: GCTGGCGGCTA
B3: binds [3].
